In article PMC10276851, “Tozorakimab (MEDI3506): an anti-IL-33 antibody that inhibits IL-33 signalling via ST2 and RAGE/EGFR to reduce inflammation and epithelial dysfunction” (Scientific Reports, 2023):

T1: IL-33ox (Homo sapiens, UniProt O95760)
T1 chain: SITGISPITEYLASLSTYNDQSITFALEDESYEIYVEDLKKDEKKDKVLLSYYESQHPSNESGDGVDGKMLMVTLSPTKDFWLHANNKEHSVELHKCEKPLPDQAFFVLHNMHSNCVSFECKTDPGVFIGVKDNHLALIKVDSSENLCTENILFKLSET

T2: IL-33red (Homo sapiens, UniProt O95760)
T2 chain: T1 chain

T3: endogenous IL-33^red derived from human lung tissue (mixture of full-length and N-terminally truncated forms) (human (endogenous in lung tissue), UniProt O95760 1-270)
T3 sequence (looked up): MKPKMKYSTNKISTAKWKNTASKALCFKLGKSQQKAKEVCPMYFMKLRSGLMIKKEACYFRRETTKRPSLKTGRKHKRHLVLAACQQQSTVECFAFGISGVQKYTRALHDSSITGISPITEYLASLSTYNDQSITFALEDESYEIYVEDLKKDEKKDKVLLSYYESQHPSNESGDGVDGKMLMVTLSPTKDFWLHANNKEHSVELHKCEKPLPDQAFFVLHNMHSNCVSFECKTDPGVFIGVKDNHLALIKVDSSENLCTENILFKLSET

B1: reduced interleukin-33 (IL-33^red), recombinant human, residues 112–270 (ligand, UniProt O95760 112-270, looked up)
chain: T1 chain
notes: interleukin-33, human, residues 112–270, reduced form (free cysteines); Other assays used a biotinylated Avi-tag histidine-tag form or an N-terminally tagged form; also called wild-type IL-33; source: recombinant
B2: tozorakimab Fab (antibody, V domains shown)
VH: EVQLLESGGGLVQPGGSLRLSCAASGFTFSSYAMSWVRQAPGKGLEWVSGISAIDQSTYYADSVKGRFTISRDNSKNTLYLQMNSLRAEDTAVYYCARQKFMQLWGGGLRYPFGYWGQGTMVTVSS
VL: SYVLTQPPSVSVSPGQTASITCSGEGMGDKYAAWYQQKPGQSPVLVIYRDTKRPSGIPERFSGSNSGNTATLTISGTQAMDEADYYCGVIQDNTGVFGGGTKLTVLG
modifications: oxidized IL-33
B3: tozorakimab (antibody, V domains shown)
VH: B2 VH
VL: B2 VL
B4: soluble serum stimulated 2 (sST2), the truncated, soluble form of ST2 (receptor, UniProt Q01638-2 19-328, looked up)
chain: KFSKQSWGLENEALIVRCPRQGKPSYTVDWYYSQTNKSIPTQERNRVFASGQLLKFLPAAVADSGIYTCIVRSPTFNRTGYANVTIYKKQSDCNVPDYLMYSTVSGSEKNSKIYCPTIDLYNWTAPLEWFKNCQALQGSRYRAHKSFLVIDNVMTEDAGDYTCKFIHNENGANYSVTATRSFTVKDEQGFSLFPVIGAPAQNEIKEVEIGKNANLTCSACFGKGTQFLAAVLWQLNGTKITDFGEPRIQQEEGQNQSFSNGLACLDMVLRIADVKEEDLLLQYDCLALNLHGLRRHTVRLSRKNPSKECF

What was measured:
[1] = biological target: B4; assay: KinExA (kinetic exclusion assay); measurement of the association rate constant (ka) of IL-33 interacting with sST2 in free solution; details: both partners purified
[2] = biological target: B4; assay: KinExA (kinetic exclusion assay); equilibrium in free solution; IL-33^red against fixed sST2 (30 pM and 2.0 pM datasets), 1:1 binding model fitted to both datasets simultaneously; details: both partners purified
IL-33ox = biological target: T1, IL-33ox; assay: SPR
IL-33red = biological target: T2, IL-33red; assay: KinExA
[3] = biological target: T3, endogenous IL-33^red derived from human …; assay: cell-based or functional assay
[4] = biological target: B1; assay: cell-based or functional assay

B1
kon [1]: 1.5e+08 M⁻¹ s⁻¹ | Kd [2]: 0.09 pM

B2
Kd (IL-33ox): 41000 pM

B3
Kd (IL-33red): 0.03 pM

B4
IC50 of inhibition of IL-8 release from HUVECs treated with human lung lysate (endogenous IL-33^red) [3]: 32 pM | IC50 of inhibition of IL-8 release from HUVECs driven by recombinant human IL-33^red (residues 112–270) [4]: 424 pM
